The DeepSol protein solubility set

Experiment: soluble on expression in E. coli; label from the status in PepcDB or PDB records
For “MGSDKIHHHHHHMAKKKVIFECMACGYQSPKWMGKCPNCGAWNQMEEIVEKAANPKHGVKTKELAGKVQKLNSIKHETTPRVLTDSAEFNRVLGGGIVSGSLVLIGGDPGIGKSTLLLQICASLSQKKKVLYITGEESLSQTKLRAERLDEDSSELQVLAETDLEVIYQTVKEEQPDLLVVDSIQTIYHPEISSAPGSVSQVRESTQSLMNIAKQMNIATFIVGHVTKEGQIAGPRLLEHMVDTVLYFEGDEHHAYRILRAVKNRFGSTNEMGIFEMKQSGLKGVNNPSEMFLEERSTNVPGSTIVATMEGTRPLLIEVQALVTPTTFNNPRRMATGIDHNRLSLLMAVLEKKENYLLQQQDAYIKVAGGVKLTEPAVDLSVIVATASSFKDKAVDGLDCYIGEVGLTGEVRRVSRIEQRVQEAAKLGFKRVIIPKNNIGGWTYPEGIQVIGVTTVHEALSFALHS”, the “soluble on expression in E. coli” value was “not soluble”.
With “MTVDNFRLQVLANHCTAAAEAMGYTLMRTAYSTFVKETEDFSAQLMTPAGKTFASPKTFGATWYTGLDYGRVIAMFDDYREGDIYLTNDPYSGFVATHTPDMHVWKPVFRDGRLVCFVGSHIHNTDMGGAVPASLSRTLTEVHQEGLRIPPMLLARDGVIDEKVLRIMEVNVRMPEQNRGDLNAQIAALNVGERKVHEIIDRFGVDEFMQGAEAILDYAEQQTRALIREIPDGEYRFAEYADEDTVGGYPCRIQITLRVRGDELELDFTGSDPQVASSLNVPTGGDGHHSVITVGLIYVMHTLAPRNVLNAGSVRPCRAVLPEGTVVNPQAPAAVGMRSLMAAVIQACTFGVFSRAMPDRLPACPAGGSTLLNVKTATREGRQVLSSIGPCGGGAGGGPEHDGVEGCGANNAFLKNTPVEINEAEVPIEIIRYGLVPDTGGAGRQRGGNAATMEFRLLAPNGVVTARNRNRSELAAWGVMGGKAGANSRFIRNPDSDAPEELRNSDLVNCAPGDVIRLQGPAGGGYGHPYERPIEQVVED” the “soluble on expression in E. coli” value was “not soluble”.
For “MGSDKIHHHHHHMSDYYKTYDLKHVINASGKMTILGVSKVPEVAIQAQQFGDTHFFEIKDLVDKTGAYIAKKLGTEGAVVVNSASAGIAEAVAGIIGQGSKYHAYHPFSPRFTKREIILPKGQNVDYGTPEEVMIELGGGQVVEAGYANMCTPEHIEMMITEQTAAIFYVKSHHAVQKSMLTIPEALEVAHKHDLPLILDAAAEEDLKKYVDLGVDVVLFSGAKAIEGPASGLVFGKEPYIGWTKLQSLGIGRAMKIGKENILGFTTALIHYLDNGPESGDAMKARLHPFVAALNEVPHLNVKEVQDGAGRPIFRAAVTVEATSPNNAKQVTAELKAGDPAIYTREYRANEGIIEFDIRAVDQAEMDLIVTRLKEILA”, the “soluble on expression in E. coli” value was “not soluble”.
In the case of “MVKVYAPASSANMSVGFDVLGAAVTPVDGALLGDVVTVEAAETFSLNNLGRFADKLPSEPRENIVYQCWERFCQELGKQIPVAMTLEKNMPIGSGLGSSACSVVAALMAMNEHCGKPLNDTRLLALMGELEGRISGSIHYDNVAPCFLGGMQLMIEENDIISQQVPGFDEWLWVLAYPGIKVSTAEARAILPAQYRRQDCIAHGRHLAGFIHACYSRQPELAAKLMKDVIAEPYRERLLPGFRQARQAVAEIGAVASGISGSGPTLFALCDKPETAQRVADWLGKNYLQNQEGFVHICRLDTAGARVLEN”, the “soluble on expression in E. coli” value is reported as “soluble”.
With “QSELTQPRSVSGSPGQSVTISCTGTSRDVGGYNYVSWYQQHPGKAPKLIIHDVIERSSGVPDRFSGSKSGNTASLTISGLQAEDEADYYCWSFAGSYYVFGTGTDVTVLGQPKANPTVTLFPPSSEELQANKATLVCLISDFYPGAVTVAWKADGSPVKAGVETTKPSKQSNNKYAASSYLSLTPEQWKSHRSYSCQVTHEGNTVEKTVAPT” the “soluble on expression in E. coli” value was “soluble”.
In the case of “SLPNGEGLQLKENSESEGVSCHYWSLFDGHAGSGAAVVASRLLQHHITEQLQDIVDILKNSAVLPPTCLGEEPENTPANSRTLTRAASLRGGVGAPGSPSTPPTRFFTEKKIPHECLVIGALESAFKEMDLQIERERSSYNISGGCTALIVICLLGKLYVANAGDSRAIIIRNGEIIPMSSEFTPETERQRLQYLAFMQPHLLGNEFTHLEFPRRVQRKELGKKMLYRDFNMTGWAYKTIEDEDLKFPLIYGEGKKARVMATIGVTRGLGDHDLKVHDSNIYIKPFLSSAPEVRIYDLSKYDHGSDDVLILATDGLWDVLSNEEVAEAITQFLPNCDPDDPHRYTLAAQDLVMRARGVLKDRGWRISNDRLGSGDDISVYVIPLIHGNKLS”, the “soluble on expression in E. coli” value is reported as “not soluble”.
For “TFGKDNIKSKVILFSIEKPSKEVAEKLEMQDDYIYRIIRMREVGHKAYSIEHTYMPLAIIPGLEPHHLEDSIYNYIRDDLKLKMQSAHVWVRGDKSNQEDSKLLDLEEPTFMMEIEKLAHLEDGRVFEYSITRHTYESFV”, the “soluble on expression in E. coli” value was “not soluble”.
For “MAHHHHHHMEYAQKSARLPRSAEEKEQWKRVIVILEHCPLQTIQTDRGFELLSDRHRSYHARHNQDPADWRPDVVHQCLLHLQDSPLNRAGMLEVFLRTKKQVCIAVDPRLRVPRNVRLFEKMMVSLLFKLKVRASTGYLSLLRVVGNPITDHIPAGTRLYRVEKDGDLIDPFTFCASCGYAADVLDAQRTDRKISLARRRLTSSTSGTLEETTAEAGTEEFAKAQRKAAERRQFQPFAFIIGGMSRGDVSVDYARPGEVSSIRLGDRGMSAAAVISTLLHGFEEEWLREDNEAC”, the “soluble on expression in E. coli” value was “soluble”.
With “NDGTTVTPLCTSPVVQCGEGTLFGGDEPARTWFTAAQSSGLAASGNLPSYDPKFNRGVSGSFGTSYVGREGESVRKELSAKGYKVTMTSAPGDGIPKGSVVNVIAPVPLKPGGTIELFISDGTRPRTTPPSTTRRPNPTEEVVPGTGVSQNDLDDLAHQLQQLLPGF” the “soluble on expression in E. coli” value was “not soluble”.
For “GHMGAWLASLKQTLGLLPADRKIRVLMLGLDNAGKTSILYRLHLGDVVTTVPTVGVNLETLQYKNISFEVWDLGGQTGVRPYWRCYFSDTDAVIYVVDSTDRDRMGVAKHELYALLDEDELRKSLLLIFANKQDLPDAASEAEIAEQLGVSSIMNRTWTIVKSSSKTGDGLVEGMDWLVERLREQGLGA”, the “soluble on expression in E. coli” value was “soluble”.
With “MAKDGGVSCLRRSEMIGIGIGELESPPLDSDQVHVLAVDDSLVDRIVIERLLRITSCKVTAVDSGWRALEFLGLDDDKAAVEFDRLKVDLIITDYCMPGMTGYELLKKIKESTSFKEVPVVIMSSENVMTRIDRCLEEGAEDFLLKPVKLADVKRLRSYLTRDVKVAAEGNKRKLTTPPPPPPLSATSSMESSDSTVESPLSMVDDEDSLTMSPESATSLVDSPMRSPGLA” the “soluble on expression in E. coli” value was “not soluble”.
For “GMAEKQYDFTHVPKRQGNSIKWGVLKEKELPMWIAEMDFKIAPEIMASMEEKLKVAAFGYESVPAEYYKAVADWEEIEHRARPKEDWCVFASGVVPAISAMVRQFTSPGDQILVQEPVYNMFYSVIEGNGRRVISSDLIYENSKYSVNWADLEEKLATPSVRMMVFCNPHNPIGYAWSEEEVKRIAELCAKHQVLLISDEIHGDLVLTDEDITPAFTVDWDAKNWVVSLISPSKTFNLAALHAACAIIPNPDLRARAEESFFLAGIGEPNLLAIPAAIAAYEEGHDWLRELKQVLRDNFAYAREFLAKEVPEVKVLDSNASYLAWVDISALGMNAEDFCKYLREKTGLIISAGNGYRGNGHEFVRINLACPKELVIDGMQRLKQGVLNLNN”, the “soluble on expression in E. coli” value was “soluble”.
With “MLTEEKEDYLKAILTNNGDKNFVTNKILSQFLNIKPPSVSEMVGRLEKAGYVETKPYKGVRLTEDGLTHTLDIIKRHRLLELFLIEILKYNWEEVHQEAEILEHRISDLFVERLDSLLNFPETCPHGGVIPRNNEYKEKYITTILNYEPGDIVTIKRVRDKTDLLIYLSSKDISIGNEVEIVSKDEMNKVIIIKRNDNVIIVSYENAMNMFAEK” the “soluble on expression in E. coli” value was “not soluble”.
With “MGSDKIHHHHHHMSIAHQNAHTIIRDILSKQHIERVWFVGCGGSLTGFWPGKYFLDCEAKKLAVGYVTSNEFVHATPNALGKNSVVILASQQGNTAETVEAARIARQKGAATIGLVYTPGTPLCEHSDYTIKYCWARYPETVDPTQQKAAYSLWLALEVLAQTEGYAHYDEMVSAFASFESVVRGAQQQVQADARHFAEAWKTEKVIYMMGSGPSFGAAHQESICILLEMQWINSASIHSGEYFHGPFEITETGTPFILLKSSGRTRPLDDRAIRFIERYQGKLQIIDVEKVGINALHASVREYFCGLLHNCVLDVYNLALATARNHPLTTRRYMWKVEY” the “soluble on expression in E. coli” value was “not soluble”.
With “MAHHHHHHMRNVVQKYLCRKNNFPGFCSKRNVCTLSQKKNLSAYKIYTDGLLHSEFSTELKTTNEVNRLPIFRVLDTEGNLLDGHNAPFEEEEIVKLYKQMVEFSIWDEIFYGIQRQGRISFYIVNDGEEGIQFGLGKVLTPDDHLYCQYRETGILLSRGFDYADIINQLFGNKYDEGKGRQMCICYTSKKLNIHTITTPLASQLSHAAGCGYALKLKNEKAVAATFCGDGSSSEGDFYAALNFAAVRESQTMFICKNNLYAISTSIKDQYRGDGVAPRALALGIESVRVDGNDLFATYLAAKKMREICTEESKPVFMEFMAYRYGHHSTSDDSSLYRPKEENDAWKKEGVHPISRLFLYLKNKKLYTDKDDELHRKAIKEKVLKELKKHESIKRYNIVGGLFENVYHEEDWNLKEQRESFEQFFKQHKGCYDTSKFEG” the “soluble on expression in E. coli” value was “not soluble”.
For “SDEFVNLKETELRLGLPGTDNVCEAKERVSCCNNNNKRVLSTDTEKEIESSSRKTETSPPRKAQIVGWPPVRSYRKNNIQSKKNESEHEGQGIYVKVSMDGAPYLRKIDLSCYKGYSELLKALEVMFKFSVGEYFERDGYKGSDFVPTYEDKDGDWMLIGDVPWEMFICTCKRLRIMKGSEAKGLGCGV”, the “soluble on expression in E. coli” value was “soluble”.
With “MSGDYRITLEELRYISVFHSITGVTAYRCIVDEENNRLIFLVSEGEAGRAIGRGGRLIKLLREALGKNIEVVEYSSDLERIVKNLFPGVKIESINVRERNGVKQVVIKVSEDDKGAAIGKGGKNVKRARLVLSKLFGVEKVVIR” the “soluble on expression in E. coli” value was “soluble”.
For “MGHHHHHHSHMNKDLLRRVLVLMNSKHTFLALCALRFMRRIIGLKDEFYNRYITKGNLFEPVINALLDNGTRYNLLNSAVIELFEFIRVEDIKSLTAHIVENFYKALESIEYVQTFKGLKTKYEQEKDRQNQKLNSVPSILRSNRFRRDAKALEEDEEMWFNEDEEEEGKAVVAPVEKPKPEDDFPDNYEKFMETKKAKESEDKENLPKRTSPGGFKFTFSHSASAANGTNSKSVVAQIPPATSNGSSSKTTNLPTSVTATKGSLVGLVDYPDDEEEDEEEESSPRKRPRLGS”, the “soluble on expression in E. coli” value was “not soluble”.
